T1: GRIP1_4, Q9Y3R0
T1 sequence (Q9Y3R0 467-571, limits assumed, looked up): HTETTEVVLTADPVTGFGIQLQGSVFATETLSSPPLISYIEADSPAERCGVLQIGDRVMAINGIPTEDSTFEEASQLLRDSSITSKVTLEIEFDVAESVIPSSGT

T2: MPDZ_12, O75970
T2 sequence (O75970 1857-1958, limits assumed, looked up): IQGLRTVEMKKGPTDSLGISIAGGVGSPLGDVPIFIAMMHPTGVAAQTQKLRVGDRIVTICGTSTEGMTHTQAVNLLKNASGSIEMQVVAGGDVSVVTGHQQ

T3: RHPN1, Q8TCX5
T3 sequence (Q8TCX5 508-602, limits assumed, looked up): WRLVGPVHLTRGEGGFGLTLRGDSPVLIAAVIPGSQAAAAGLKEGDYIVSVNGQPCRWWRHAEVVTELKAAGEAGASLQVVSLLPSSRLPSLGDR

T4: LIN7C, Q9NUP9
T4 sequence (Q9NUP9 88-185, limits assumed, looked up): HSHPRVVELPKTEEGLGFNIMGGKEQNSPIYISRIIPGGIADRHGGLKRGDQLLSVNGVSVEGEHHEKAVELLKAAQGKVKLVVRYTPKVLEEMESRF

T5: PARD3B_1, Q8TEW8
T5 sequence (Q8TEW8 196-299, limits assumed, looked up): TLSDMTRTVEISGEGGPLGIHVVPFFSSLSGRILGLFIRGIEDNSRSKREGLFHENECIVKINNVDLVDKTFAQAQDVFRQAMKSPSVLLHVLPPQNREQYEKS

T6: CARD11, Q9BXL7
T6 sequence (Q9BXL7 662-765, limits assumed, looked up): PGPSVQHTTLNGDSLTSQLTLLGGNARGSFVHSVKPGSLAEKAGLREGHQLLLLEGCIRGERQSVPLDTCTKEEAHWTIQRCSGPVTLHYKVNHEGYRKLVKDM

T7: SHANK1, Q9Y566
T7 sequence (Q9Y566 658-767, limits assumed, looked up): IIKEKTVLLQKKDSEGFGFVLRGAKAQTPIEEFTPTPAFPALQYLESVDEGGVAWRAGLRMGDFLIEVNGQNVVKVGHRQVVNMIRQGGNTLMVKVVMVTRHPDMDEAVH

T8: SIPA1L2, Q9P2F8
T8 sequence (Q9P2F8 945-1036, limits assumed, looked up): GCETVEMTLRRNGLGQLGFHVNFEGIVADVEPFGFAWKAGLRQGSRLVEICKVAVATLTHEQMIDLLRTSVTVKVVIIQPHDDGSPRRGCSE


Assays:
Experiment in all cases: holdup assay
Parameters in all cases: key: below the threshold = too weak to quantify, mostly under pKd 3.1 to 4
Details in all cases: plain residues with an end cap or a label only (N-terminal biotin on a linker: ado-ado)
Inadl_1, Q8NI35 = molecular target: Inadl_1, Q8NI35
NHERF2_2, Q15599 = molecular target: NHERF2_2, Q15599
Inadl_6, Q8NI35 = molecular target: Inadl_6, Q8NI35
GRIP1_4, Q9Y3R0 = molecular target: T1, GRIP1_4, Q9Y3R0
MPDZ_12, O75970 = molecular target: T2, MPDZ_12, O75970
HTRA2, O43464 = molecular target: HTRA2, O43464
DLG4_1, P78352 = molecular target: DLG4_1, P78352
RHPN1, Q8TCX5 = molecular target: T3, RHPN1, Q8TCX5
LNX1_3, Q8TBB1 = molecular target: LNX1_3, Q8TBB1
FRMPD2_2, Q68DX3 = molecular target: FRMPD2_2, Q68DX3
LIN7C, Q9NUP9 = molecular target: T4, LIN7C, Q9NUP9
SCRIB_3, Q14160 = molecular target: SCRIB_3, Q14160
SNX27, Q96L92 = molecular target: SNX27, Q96L92
GRIP2_4, Q9C0E4 = molecular target: GRIP2_4, Q9C0E4
PARD3B_1, Q8TEW8 = molecular target: T5, PARD3B_1, Q8TEW8
NHERF4_4, Q86UT5 = molecular target: NHERF4_4, Q86UT5
GRID2IP_2, A4D2P6 = molecular target: GRID2IP_2, A4D2P6
GORASP1, Q9BQQ3 = molecular target: GORASP1, Q9BQQ3
DLG1_3, Q12959 = molecular target: DLG1_3, Q12959
LDB3, O75112 = molecular target: LDB3, O75112
CARD11, Q9BXL7 = molecular target: T6, CARD11, Q9BXL7
MAGI2_2, Q86UL8 = molecular target: MAGI2_2, Q86UL8
SHANK1, Q9Y566 = molecular target: T7, SHANK1, Q9Y566
NHERF4_1, Q86UT5-2 = molecular target: NHERF4_1, Q86UT5-2
SIPA1L2, Q9P2F8 = molecular target: T8, SIPA1L2, Q9P2F8
Inadl_2, Q8NI35 = molecular target: Inadl_2, Q8NI35
FRMPD4, Q14CM0 = molecular target: FRMPD4, Q14CM0
MAGI2_6, Q86UL8 = molecular target: MAGI2_6, Q86UL8
PTPN3, P26045 = molecular target: PTPN3, P26045
Sequence of PTPN3, P26045 (P26045 505-587): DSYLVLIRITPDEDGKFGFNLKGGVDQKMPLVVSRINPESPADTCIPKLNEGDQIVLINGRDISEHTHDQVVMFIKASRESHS

Sequence of NHERF4_4, Q86UT5 (Q86UT5 464-550): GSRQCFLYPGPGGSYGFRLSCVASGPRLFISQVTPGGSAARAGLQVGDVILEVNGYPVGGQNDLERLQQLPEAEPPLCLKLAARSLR
Sequence of Inadl_6, Q8NI35 (Q8NI35 1058-1167): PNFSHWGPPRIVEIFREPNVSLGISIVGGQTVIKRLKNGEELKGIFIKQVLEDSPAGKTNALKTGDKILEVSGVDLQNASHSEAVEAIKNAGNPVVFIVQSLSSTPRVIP
Sequence of NHERF4_1, Q86UT5-2 (Q86UT5 other isoform, or with tags, fused parts or gaps): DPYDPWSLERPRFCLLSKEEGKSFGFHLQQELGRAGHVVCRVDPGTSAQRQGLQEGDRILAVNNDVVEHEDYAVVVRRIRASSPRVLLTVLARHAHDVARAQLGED
Sequence of DLG4_1, P78352 (P78352 62-152): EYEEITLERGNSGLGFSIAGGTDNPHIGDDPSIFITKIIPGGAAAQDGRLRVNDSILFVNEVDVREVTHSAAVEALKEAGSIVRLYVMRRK
Sequence of MAGI2_2, Q86UL8 (Q86UL8 410-522): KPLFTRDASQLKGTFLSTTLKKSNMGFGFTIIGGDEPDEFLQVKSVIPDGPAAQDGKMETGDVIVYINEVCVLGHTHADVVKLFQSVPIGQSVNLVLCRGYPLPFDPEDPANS
Sequence of NHERF2_2, Q15599 (Q15599 142-238): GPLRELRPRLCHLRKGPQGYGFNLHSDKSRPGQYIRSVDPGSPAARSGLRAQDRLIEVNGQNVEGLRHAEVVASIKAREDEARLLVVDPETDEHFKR
Sequence of Inadl_2, Q8NI35 (Q8NI35 238-335): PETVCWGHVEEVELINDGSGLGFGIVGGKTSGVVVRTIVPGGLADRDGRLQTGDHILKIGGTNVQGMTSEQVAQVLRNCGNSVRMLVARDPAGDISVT
Sequence of FRMPD4, Q14CM0 (Q14CM0 67-160): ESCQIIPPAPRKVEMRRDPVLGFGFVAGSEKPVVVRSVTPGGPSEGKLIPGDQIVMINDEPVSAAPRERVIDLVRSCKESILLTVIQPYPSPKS
Sequence of DLG1_3, Q12959 (Q12959 457-571): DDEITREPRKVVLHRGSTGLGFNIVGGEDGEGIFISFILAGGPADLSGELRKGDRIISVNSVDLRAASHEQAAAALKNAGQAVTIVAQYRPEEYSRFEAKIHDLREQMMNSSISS
Sequence of HTRA2, O43464 (O43464 355-458): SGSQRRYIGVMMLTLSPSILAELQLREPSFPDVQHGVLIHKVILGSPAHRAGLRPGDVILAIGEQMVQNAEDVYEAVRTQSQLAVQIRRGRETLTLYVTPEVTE
Sequence of LNX1_3, Q8TBB1 (Q8TBB1 500-596): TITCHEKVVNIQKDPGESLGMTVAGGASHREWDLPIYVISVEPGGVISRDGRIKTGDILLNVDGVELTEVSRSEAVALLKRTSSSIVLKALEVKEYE
Sequence of GRIP2_4, Q9C0E4 (Q9C0E4 446-548): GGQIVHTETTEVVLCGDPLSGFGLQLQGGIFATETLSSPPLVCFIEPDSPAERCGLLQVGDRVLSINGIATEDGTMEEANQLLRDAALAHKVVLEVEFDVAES
Sequence of GRID2IP_2, A4D2P6 (A4D2P6 272-370): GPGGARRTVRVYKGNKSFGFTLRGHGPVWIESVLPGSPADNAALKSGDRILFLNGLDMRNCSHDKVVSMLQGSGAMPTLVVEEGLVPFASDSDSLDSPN
Sequence of GORASP1, Q9BQQ3 (Q9BQQ3 1-208): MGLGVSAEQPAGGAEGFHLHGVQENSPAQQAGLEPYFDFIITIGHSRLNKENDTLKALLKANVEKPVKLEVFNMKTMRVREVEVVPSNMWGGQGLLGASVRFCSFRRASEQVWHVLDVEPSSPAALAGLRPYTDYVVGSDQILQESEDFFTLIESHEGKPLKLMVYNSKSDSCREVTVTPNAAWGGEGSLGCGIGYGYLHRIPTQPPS
Sequence of Inadl_1, Q8NI35 (Q8NI35 113-229): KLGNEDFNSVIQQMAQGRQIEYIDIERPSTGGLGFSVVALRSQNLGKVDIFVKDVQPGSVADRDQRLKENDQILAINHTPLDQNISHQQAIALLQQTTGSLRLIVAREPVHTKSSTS
Sequence of FRMPD2_2, Q68DX3 (Q68DX3 944-1038): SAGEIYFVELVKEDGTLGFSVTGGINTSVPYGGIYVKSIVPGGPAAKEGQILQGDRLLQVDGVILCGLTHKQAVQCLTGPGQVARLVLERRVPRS
Sequence of SCRIB_3, Q14160 (Q14160 999-1103): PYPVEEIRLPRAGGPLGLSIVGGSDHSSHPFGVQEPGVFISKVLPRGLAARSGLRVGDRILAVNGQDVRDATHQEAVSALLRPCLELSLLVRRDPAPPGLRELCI
Sequence of MAGI2_6, Q86UL8 (Q86UL8 1141-1229): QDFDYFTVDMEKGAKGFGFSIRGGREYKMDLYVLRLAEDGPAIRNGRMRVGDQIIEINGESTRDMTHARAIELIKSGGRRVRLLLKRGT
Sequence of LDB3, O75112 (O75112 1-94): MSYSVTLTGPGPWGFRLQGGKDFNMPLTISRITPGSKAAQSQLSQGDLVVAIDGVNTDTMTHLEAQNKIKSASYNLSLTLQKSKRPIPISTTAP

pKd (Inadl_1, Q8NI35)	pKd (NHERF2_2, Q15599)	pKd (Inadl_6, Q8NI35)	pKd (GRIP1_4, Q9Y3R0)	pKd (MPDZ_12, O75970)	pKd (HTRA2, O43464)	pKd (DLG4_1, P78352)	pKd (RHPN1, Q8TCX5)	pKd (LNX1_3, Q8TBB1)	pKd (FRMPD2_2, Q68DX3)	pKd (LIN7C, Q9NUP9)	pKd (SCRIB_3, Q14160)	pKd (SNX27, Q96L92)	pKd (GRIP2_4, Q9C0E4)	pKd (PARD3B_1, Q8TEW8)	pKd (NHERF4_4, Q86UT5)	pKd (GRID2IP_2, A4D2P6)	pKd (GORASP1, Q9BQQ3)	pKd (DLG1_3, Q12959)	pKd (LDB3, O75112)	Binder	also measured
below the threshold	below the threshold	below the threshold	below the threshold	below the threshold	below the threshold	below the threshold	4.2	below the threshold	below the threshold	below the threshold	3.64	below the threshold	below the threshold	below the threshold	below the threshold	4.08	below the threshold	3.76	below the threshold	QRYPGNQTTC [CCL24, O00175]	pKd (CARD11, Q9BXL7): below the threshold; pKd (MAGI2_2, Q86UL8): below the threshold; pKd (SHANK1, Q9Y566): below the threshold; pKd (NHERF4_1, Q86UT5-2): below the threshold; pKd (SIPA1L2, Q9P2F8): below the threshold; pKd (Inadl_2, Q8NI35): below the threshold; pKd (FRMPD4, Q14CM0): below the threshold; pKd (MAGI2_6, Q86UL8): below the threshold; pKd (PTPN3, P26045): 3.66
below the threshold	3.84	4.37	below the threshold	4.65	4.12	4.37	4.42	below the threshold	4.54	below the threshold	4.4	5.06	below the threshold	3.52	below the threshold	below the threshold	3.93	below the threshold	3.74	HYPASPDSWV [CTNND2, Q9UQB3]	pKd (CARD11, Q9BXL7): below the threshold; pKd (MAGI2_2, Q86UL8): below the threshold; pKd (SHANK1, Q9Y566): below the threshold; pKd (NHERF4_1, Q86UT5-2): below the threshold; pKd (SIPA1L2, Q9P2F8): below the threshold; pKd (Inadl_2, Q8NI35): below the threshold; pKd (FRMPD4, Q14CM0): 3.76; pKd (MAGI2_6, Q86UL8): 5.37; pKd (PTPN3, P26045): 5.07
below the threshold	below the threshold	below the threshold	below the threshold	below the threshold	below the threshold	3.91	3.77	below the threshold	below the threshold	below the threshold	below the threshold	4.04	below the threshold	below the threshold	below the threshold	3.63	3.53	3.56	below the threshold	KLQNPNQSVV [TYRP1, P17643]	pKd (CARD11, Q9BXL7): below the threshold; pKd (MAGI2_2, Q86UL8): 4; pKd (SHANK1, Q9Y566): below the threshold; pKd (NHERF4_1, Q86UT5-2): below the threshold; pKd (SIPA1L2, Q9P2F8): below the threshold; pKd (Inadl_2, Q8NI35): below the threshold; pKd (FRMPD4, Q14CM0): below the threshold; pKd (MAGI2_6, Q86UL8): below the threshold; pKd (PTPN3, P26045): below the threshold
below the threshold	below the threshold	below the threshold	below the threshold	3.67	below the threshold	4.33	3.65	below the threshold	below the threshold	below the threshold	4.13	4.05	below the threshold	below the threshold	3.94	4.05	3.47	3.58	below the threshold	HLSTRQGTCV [ATRNL1, Q5VV63]	pKd (CARD11, Q9BXL7): below the threshold; pKd (MAGI2_2, Q86UL8): 4.73; pKd (SHANK1, Q9Y566): below the threshold; pKd (NHERF4_1, Q86UT5-2): below the threshold; pKd (SIPA1L2, Q9P2F8): below the threshold; pKd (Inadl_2, Q8NI35): below the threshold; pKd (FRMPD4, Q14CM0): 3.51; pKd (MAGI2_6, Q86UL8): 4; pKd (PTPN3, P26045): 4.54
below the threshold	below the threshold	3.7	below the threshold	below the threshold	3.96	below the threshold	below the threshold	4.07	below the threshold	below the threshold	3.98	4.14	below the threshold	4.78	4.3	below the threshold	4.06	below the threshold	3.9	VCMGDHWFDV [PRKN, O60260]	pKd (CARD11, Q9BXL7): below the threshold; pKd (MAGI2_2, Q86UL8): below the threshold; pKd (SHANK1, Q9Y566): below the threshold; pKd (NHERF4_1, Q86UT5-2): below the threshold; pKd (SIPA1L2, Q9P2F8): below the threshold; pKd (Inadl_2, Q8NI35): 3.51; pKd (FRMPD4, Q14CM0): 3.86; pKd (MAGI2_6, Q86UL8): 4.19; pKd (PTPN3, P26045): 3.49

Reference: article PMC9482650, “Quantitative fragmentomics allow affinity mapping of interactomes” (Nature Communications, 2022)
